Results: patent US20190144537A1

Target: cynoNotch3 monomer (cyno)
Assay: binding to cynoNotch3 monomer at 25° C., protocol similar to that for hNotch3 (method not named)

Row | Kd [nM] | Binder
1 | 5.35 | 28042.1 antibody (antibody, human IgG1, kappa, V domains shown) VH: EVQLLESGGGLVQPGGSLRLSCAASGFTFSDYMMSWVRQAPGKGLEWVSWIRSSGGTTLYADSVKGRFTISRDNSKNTLYLQMNSLRAEDTATYYCARVGGGTTGYAFDIWGQGTMVTVSS VL: DIQMTQSPSSLSASVGDRVTITCRASQSISSYLNWYQQKPGKAPKLLIYGASSLQSGVPSRVSGTGSGTDFTLTISSLQPEDFATYYCQQSYSPSFTFGPGTKVDFER
2 | 214 | 28042.2 antibody (antibody, human IgG1, kappa, V domains shown) VH: EVQLLESGGGLVQPGGSLRLSCAASGFTFSDYMMSWVRQAPGKGLEWVSWIRSSGGTTLYADSVKGRFTISRDNSKNTLYLQMNSLRAEDTATYYCARVGGGTTGYAFDIWGQGTMVTVSS VL: DIQMTQSPSSLSASVGDRVTITCRASQSISNYLNWYQQKPGKAPKLLIYAASSLQSGVPSRVSGTGSGTDFTLTISSLQPEDFATYYCQQSYSPSFTFGPGTKVDFER
